Results on three proteins are retold here after US20030200558A1 (MONSANTO, published 2003).

Numbering of substitutions follows the chain as printed. Where two headings read alike, the source gives them in different places.

Data set [1] deals with the molecule itself. As to the kind of experiment: sucrose gradient sedimentation, anti-FLAG western (self-assembly). The procedure: (§1) To determine if the recombinant forms of β subunit expressed in E. coli from pMON39328 and pMON39329 could self-assemble to form trimers, aliquots of the soluble protein fraction from E. coli lysates are layered onto 12 ml of a 5-25% sucrose density gradient and centrifuged at 36,000 rpm for 17.5 hours at 20° C. (Sorvall TH-641 rotor; Sorvall Ultra Pro 80 ultracentrifuge). Following centrifugation, the gradient is divided into fractions using a Labconco Autodensi-Flow instrument (Labconco, Kansas City, Mo.), and each fraction is analyzed by western blot analysis using Anti-FLAG M2 antibody (Stratagene Corporation, LaJolla, Calif.) to determine which fractions contained β-conglycinin β subunit. 7S and […] soy protein fractions, as well as ovalbumin (45 kD) and aldolase (158 kD), are run as size markers on separate gradients.

Data set [2] deals with the molecule itself. The description is as above. The protocol:
as §1
This example sets forth confirmation of the protein structure from the expression of modified β-conglycinin β subunit clones. The assembly properties of the following modified forms of the β subunit (indicated by mutant ID number), each containing a different tryptophan substitution, are determined as described in Example 6. Western blot analysis of sucrose gradient fractions is carried out as in Example 6 using anti-FLAG antibody.
The source holds these as a separate data set.

B1: epitope (FLAG)-tagged form of the β-conglycinin β subunit encoded by pMON39328 (other)
chain: MDYKDDDDKLKVREDENNPFYLRSSNSFQTLFENQNGRIRLLQRFNKRSPQLENLRDYRIVQFQSKPNTILLPHHADADFLLFVLSGRAILTLVNNDDRDSYNLHPGDAQRIPAGTTYYLVNPHDHQNLKIIKLAIPVNKPGRYDDFFLSSTQAQQSYLQGFSHNILETSFHSEFEEINRVLLGEEEEQRQQEGVIVELSKEQIRQLSRRAKSSSRKTISSEDEPFNLRSRNPIYSNNFGKFFEITPEKTPQLRDLDIFLSSVDINEGALLLPHFNSKAIVILVINEGDANIELVGIKEQQQKQKQEEEPLEVQRYRAELSEDDVFVIPAAYPFVVNATSNLNFLAFGINAENNQRNFLAGEKDNVVRQIERQVQELAFPGSAQDVERLLKKQRESYFVDAQPQQKEEGSKGRKGPFPSILGALY
notes: Expressed in E. coli. pMON39335 encodes the same protein (silent change TTA to CTT at Leu24); also called pMON39335
As for B1, the binding result in data set [1] was “binds”.

B2: β-conglycinin β subunit mutant 39328-65 (other)
chain: B1 chain with Y21W, Y58W, Y102W, P123W, Y144W, Y158W, Y316W, Y332W, Y397W
In the case of B2, the binding result in data set [2] was “no binding”.

B3: mature form (plus additional methionine encoded by start codon) of the β-conglycinin β subunit encoded by pMON39329 (other)
chain: MLKVREDENNPFYLRSSNSFQTLFENQNGRIRLLQRFNKRSPQLENLRDYRIVQFQSKPNTILLPHHADADFLLFVLSGRAILTLVNNDDRDSYNLHPGDAQRIPAGTTYYLVNPHDHQNLKIIKLAIPVNKPGRYDDFFLSSTQAQQSYLQGFSHNILETSFHSEFEEINRVLLGEEEEQRQQEGVIVELSKEQIRQLSRRAKSSSRKTISSEDEPFNLRSRNPIYSNNFGKFFEITPEKTPQLRDLDIFLSSVDINEGALLLPHFNSKAIVILVINEGDANIELVGIKEQQQKQKQEEEPLEVQRYRAELSEDDVFVIPAAYPFVVNATSNLNFLAFGINAENNQRNFLAGEKDNVVRQIERQVQELAFPGSAQDVERLLKKQRESYFVDAQPQQKEEGSKGRKGPFPSILGALY
notes: expressed in E. coli; also called native form
For B3, in data set [1], the binding result is recorded as “binds”.
